Here are results for 91 sequences from the supplement of paper PMC9112550, “Optimization of the antimicrobial peptide Bac7 by deep mutational scanning” (BMC Biology, 2022).

In the data set the test system is Escherichia coli TOP10. As to the kind of experiment: shrunken log2 fold change of peptide-encoding DNA abundance (4.5 h post-induction vs induction); higher = less antimicrobial activity (less host growth inhibition). Particulars: time post-induction: 4.5 h; library: site-saturation at positions 5, 18, 19, 20.
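Note: peptides expressed intracellularly from a pBAD plasmid library in pooled LB shake-flask culture, induced with 0.3% L-arabinose, DNA abundance read by NGS, three biological replicates, DESeq2 with apeglm shrinkage.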

Regarding RRIRWRPPRLPRPRPRPVNTPRP, the “shrunken log2 fold change” value was -0.0848. With RRIRKRPPRLPRPRPRPWGVPRP, the “shrunken log2 fold change” value came to 0.291. As for RRIRFRPPRLPRPRPRPQGTPRP, the “shrunken log2 fold change” value was -0.068. Take RRIRKRPPRLPRPRPRPQGKPRP: the “shrunken log2 fold change” value was 0.0114. As for RRIRPRPPRLPRPRPRPMHGPRP, the “shrunken log2 fold change” value amounted to 0.0373. Consider RRIRNRPPRLPRPRPRPQHFPRP, for which the “shrunken log2 fold change” value was -0.0338.

On to RRIRMRPPRLPRPRPRPADLPRP, for which the “shrunken log2 fold change” value was 0.752. RRIRWRPPRLPRPRPRPVNKPRP: the “shrunken log2 fold change” value is -0.0372. RRIRKRPPRLPRPRPRPMKGPRP: the “shrunken log2 fold change” value is -0.156. As to RRIRQRPPRLPRPRPRPFLWPRP, the “shrunken log2 fold change” value is -0.0488. RRIRHRPPRLPRPRPRPQIQPRP: the “shrunken log2 fold change” value is -0.0515. For RRIRARPPRLPRPRPRPVTGPRP the value was 0.301; for RRIRMRPPRLPRPRPRPYHHPRP, -0.702.

For the sequence RRIRYRPPRLPRPRPRPHKYPRP, the “shrunken log2 fold change” value is -1.08. For RRIRHRPPRLPRPRPRPKFQPRP the value was -0.0213; for RRIRARPPRLPRPRPRPCYIPRP, -0.607; for RRIRVRPPRLPRPRPRPDWHPRP, -0.0256. For the sequence RRIRMRPPRLPRPRPRPWREPRP, the “shrunken log2 fold change” value is 0.189.

As to RRIRCRPPRLPRPRPRPHVVPRP, the “shrunken log2 fold change” value is -0.137. Regarding RRIRPRPPRLPRPRPRPRYEPRP, the “shrunken log2 fold change” value was -0.0954. For RRIRIRPPRLPRPRPRPEYWPRP the value was -0.0686. In the case of RRIRDRPPRLPRPRPRPASVPRP, the “shrunken log2 fold change” value was 0.0326.

RRIRWRPPRLPRPRPRPGACPRP: the “shrunken log2 fold change” value was 0.188. Regarding RRIRDRPPRLPRPRPRPTFIPRP, the “shrunken log2 fold change” value was -0.13.

Consider RRIRARPPRLPRPRPRPKGTPRP, for which the “shrunken log2 fold change” value stood at 0.233. As to RRIRIRPPRLPRPRPRPTRRPRP, the “shrunken log2 fold change” value worked out at 0.298. As for RRIRFRPPRLPRPRPRPSPIPRP, the “shrunken log2 fold change” value is -0.13. For RRIRHRPPRLPRPRPRPYWYPRP, the “shrunken log2 fold change” value was -1.25.

With RRIRARPPRLPRPRPRPYMPPRP, the “shrunken log2 fold change” value was -0.829. For RRIRARPPRLPRPRPRPRLWPRP the value was 0.724. For RRIRPRPPRLPRPRPRPGLKPRP the value was 0.211. As for RRIRARPPRLPRPRPRPKNGPRP, the “shrunken log2 fold change” value was determined as 0.246. For RRIRTRPPRLPRPRPRPQTHPRP, the “shrunken log2 fold change” value is -0.322. For RRIRKRPPRLPRPRPRPCGWPRP the value was 0.179; for RRIRCRPPRLPRPRPRPPVNPRP, -0.0382; for RRIRTRPPRLPRPRPRPTFMPRP, -0.191. In the case of RRIRARPPRLPRPRPRPQESPRP, the “shrunken log2 fold change” value stood at 0.0266. On to RRIRDRPPRLPRPRPRPPWSPRP, for which the “shrunken log2 fold change” value worked out at 0.31.

As to RRIRCRPPRLPRPRPRPISDPRP, the “shrunken log2 fold change” value is -0.237. For RRIRGRPPRLPRPRPRPHKNPRP, the “shrunken log2 fold change” value came out at 0.535. On to RRIRERPPRLPRPRPRPIKTPRP, for which the “shrunken log2 fold change” value was -0.139. With RRIRNRPPRLPRPRPRPNHYPRP, the “shrunken log2 fold change” value was -0.885.

Regarding RRIRIRPPRLPRPRPRPYPPPRP, the “shrunken log2 fold change” value is -0.818. As for RRIRLRPPRLPRPRPRPAALPRP, the “shrunken log2 fold change” value stood at 0.182.

Turning to RRIRWRPPRLPRPRPRPYEYPRP, the “shrunken log2 fold change” value was -0.254.

For RRIRMRPPRLPRPRPRPHFPPRP, the “shrunken log2 fold change” value is -0.106. As for RRIRKRPPRLPRPRPRPQCNPRP, the “shrunken log2 fold change” value was -0.0696. Regarding RRIRKRPPRLPRPRPRPVILPRP, the “shrunken log2 fold change” value is -0.612. Regarding RRIRQRPPRLPRPRPRPLDIPRP, the “shrunken log2 fold change” value was -0.163. For the sequence RRIRIRPPRLPRPRPRPVTKPRP, the “shrunken log2 fold change” value is -0.359. Take RRIRSRPPRLPRPRPRPEYPPRP: the “shrunken log2 fold change” value is -0.128. For RRIRSRPPRLPRPRPRPEMIPRP the value was 0.0158; for RRIRHRPPRLPRPRPRPFNQPRP, -0.0213; for RRIRVRPPRLPRPRPRPVSNPRP, -0.0653. For RRIRNRPPRLPRPRPRPTCPPRP the value was 0.059; for RRIRFRPPRLPRPRPRPGAVPRP, 0.223. Consider RRIRFRPPRLPRPRPRPQITPRP, for which the “shrunken log2 fold change” value was -0.481.

Regarding RRIRHRPPRLPRPRPRPINLPRP, the “shrunken log2 fold change” value is -0.0477. RRIRYRPPRLPRPRPRPHHEPRP: the “shrunken log2 fold change” value is -0.0815. As for RRIRCRPPRLPRPRPRPIEDPRP, the “shrunken log2 fold change” value is 0.102. On to RRIRNRPPRLPRPRPRPRVAPRP, for which the “shrunken log2 fold change” value amounted to 0.111. On to RRIRKRPPRLPRPRPRPPTLPRP, for which the “shrunken log2 fold change” value was found to be 1.53. Take RRIRTRPPRLPRPRPRPTRIPRP: the “shrunken log2 fold change” value is -0.204. With RRIRMRPPRLPRPRPRPSMGPRP, the “shrunken log2 fold change” value was found to be 0.0383. Take RRIRIRPPRLPRPRPRPEREPRP: the “shrunken log2 fold change” value turned out to be 0.0556. For RRIRDRPPRLPRPRPRPQVAPRP, the “shrunken log2 fold change” value is 0.166. As for RRIRRRPPRLPRPRPRPGCTPRP, the “shrunken log2 fold change” value is 0.183. As for RRIRLRPPRLPRPRPRPPWNPRP, the “shrunken log2 fold change” value came out at 0.939.

As for RRIRIRPPRLPRPRPRPAPQPRP, the “shrunken log2 fold change” value came out at 0.363. As to RRIRCRPPRLPRPRPRPYITPRP, the “shrunken log2 fold change” value was -1.44. As for RRIRSRPPRLPRPRPRPIKYPRP, the “shrunken log2 fold change” value is -0.654.

As for RRIRTRPPRLPRPRPRPHTLPRP, the “shrunken log2 fold change” value was -0.792. With RRIRLRPPRLPRPRPRPWRDPRP, the “shrunken log2 fold change” value was -0.252. Turning to RRIRFRPPRLPRPRPRPREEPRP, the “shrunken log2 fold change” value is -0.0431. As for RRIRSRPPRLPRPRPRPIIRPRP, the “shrunken log2 fold change” value is -1.09. For RRIRRRPPRLPRPRPRPCFVPRP, the “shrunken log2 fold change” value worked out at 0.0292.

With RRIRWRPPRLPRPRPRPTSSPRP, the “shrunken log2 fold change” value is 0.23. Turning to RRIRHRPPRLPRPRPRPMVLPRP, the “shrunken log2 fold change” value was -0.0459.

RRIRPRPPRLPRPRPRPYKHPRP: the “shrunken log2 fold change” value was -0.777. For RRIRYRPPRLPRPRPRPEDWPRP, the “shrunken log2 fold change” value was -0.252.

For the sequence RRIRSRPPRLPRPRPRPFAWPRP, the “shrunken log2 fold change” value is -0.0248. In the case of RRIRLRPPRLPRPRPRPHMAPRP, the “shrunken log2 fold change” value worked out at 0.0118. On to RRIRSRPPRLPRPRPRPNRIPRP, for which the “shrunken log2 fold change” value was -0.304. Turning to RRIRIRPPRLPRPRPRPNGHPRP, the “shrunken log2 fold change” value was -0.469.

Take RRIRDRPPRLPRPRPRPMDPPRP: the “shrunken log2 fold change” value is -0.0367. As to RRIRYRPPRLPRPRPRPAVCPRP, the “shrunken log2 fold change” value is -0.0135. As to RRIRERPPRLPRPRPRPEPQPRP, the “shrunken log2 fold change” value amounted to 0.519. For the sequence RRIRQRPPRLPRPRPRPMIGPRP, the “shrunken log2 fold change” value was 0.0241. Regarding RRIRCRPPRLPRPRPRPETVPRP, the “shrunken log2 fold change” value is 0.448. For RRIRVRPPRLPRPRPRPQETPRP the value was 0.0431; for RRIRHRPPRLPRPRPRPRITPRP, -0.0394.
